The values that follow come from publication doi:10.1101/2025.08.31.673313 (bioRxiv, 2025).

This test concerns the target wild-type KRAS peptide on HLA-C*08:02, on peptide-pulsed cells (Homo sapiens, HLA-C*08:02). In words: flow cytometry on cells. A general note: A flow cytometer gives signals particle by particle.

B1: C8K10D5-1 Fab (Fab, V domains shown)
VH: EVQLVESGGGLVQPGRSLRLSCAASGFTFDQYAMHWVRQAPGKGLEWVSGISAYSLSIGYADSVKGRFTISRDNAKNSLYLQMNSLRAEDTAVYYCARGRSEGVYMDGMDIWGSGTLVTVSS
VL: SYVLTQPPSVSVAPGQTARITCGGNNIKYRDVHWYQQKPGQAPVLVVYQDTLRPQGIPERFSGSNSGNMATLTISRVEAGDEADYYCQVWDWDTDHWVFGGGTDLTVL
With B1, the binding result was “no binding (tested: 50 nM Fab)”.
